Results as given in patent publication EP4782466A1, “FUSION PROTEIN FOR INACTIVATING CORONAVIRUS AND USE THEREOF” (priority 2023, dated 2025).

Key:
Test in all cases: cell-based or functional assay
[1] = target: S protein of SARS-CoV-2 Omicron BA.2.2 (SARS-CoV-2 BA.2.2)
[2] = target: S protein of SARS-CoV-2 Omicron BA.3 (SARS-CoV-2 BA.3)
[3] = target: S protein of SARS-CoV-2 Omicron BA.2 (SARS-CoV-2 BA.2)
[4] = target: S protein of SARS-CoV-2 Delta (B.1.617.2) (SARS-CoV-2 Delta (B.1.617.2))
[5] = target: S protein of SARS-CoV-2 Omicron BA.4.6 (SARS-CoV-2 BA.4.6)
[6] = target: S protein of SARS-CoV-2 Beta (B.1.351) (SARS-CoV-2 Beta (B.1.351))
[7] = target: S protein of SARS-CoV-2 Lambda (SARS-CoV-2 Lambda)
[8] = target: S protein of SARS-CoV-2 Omicron BF.7 (SARS-CoV-2 BF.7)
[9] = target: S protein of SARS-CoV-2 Omicron BA.2.9 (SARS-CoV-2 BA.2.9)
[10] = target: S protein of SARS-CoV-2 Alpha (B.1.1.7) (SARS-CoV-2 Alpha (B.1.1.7))
[11] = target: S protein of SARS-CoV-2 Omicron XBB (SARS-CoV-2 XBB)
[12] = target: S protein of SARS-CoV-2 Omicron BQ.1 (SARS-CoV-2 BQ.1)
[13] = target: S protein of SARS-CoV-2 Omicron BA.2.12.1 (SARS-CoV-2 BA.2.12.1)
[14] = target: S protein of SARS-CoV-2 Omicron BA.2.75 (SARS-CoV-2 BA.2.75)
[15] = target: S protein of SARS-CoV-2 Omicron BA.5 (SARS-CoV-2 BA.5)
[16] = target: S protein of SARS-CoV-2 Omicron BA.1 (SARS-CoV-2 BA.1)
[17] = target: S protein of SARS-CoV-2 Gamma (P.1) (SARS-CoV-2 Gamma (P.1))

AL5E protein (ACE2-linker-EK1 fusion protein with (GGGGS)5 linker)
EC50, inactivation of pseudovirus (Caco-2, luciferase) [1]: 3350 pM | Fold enhancement of AL5E over ACE2 (EC50, pseudovirus inactivation) [1]: 142 fold | Fold enhancement of AL5E over ACE2 (IC50, pseudovirus inhibition) [1]: 59.3 fold | Fold of AL5E over ACE2 (IC50, live BA.2.2 virus inhibition) [1]: 44 fold | IC50, inhibition of pseudovirus infection (Caco-2, luciferase) [1]: 200 pM | EC50, inactivation of pseudovirus (Caco-2, luciferase) [2]: 2260 pM | Fold enhancement of AL5E over ACE2 (EC50, pseudovirus inactivation) [2]: 23.1 fold | Fold enhancement of AL5E over ACE2 (IC50, pseudovirus inhibition) [2]: 32.5 fold | IC50, inhibition of pseudovirus infection (Caco-2, luciferase) [2]: 200 pM | EC50, inactivation of pseudovirus (Caco-2, luciferase) [3]: 3040 pM | Fold enhancement of AL5E over ACE2 (EC50, pseudovirus inactivation) [3]: 108 fold | Fold enhancement of AL5E over ACE2 (IC50, pseudovirus inhibition) [3]: 96.8 fold | IC50, inhibition of pseudovirus infection (Caco-2, luciferase) [3]: 130 pM | EC50, inactivation of pseudovirus (Caco-2, luciferase) [4]: 8210 pM | Fold enhancement of AL5E over ACE2 (EC50, pseudovirus inactivation) [4]: 73.7 fold | Fold enhancement of AL5E over ACE2 (IC50, pseudovirus inhibition) [4]: 30.3 fold | IC50, inhibition of pseudovirus infection (Caco-2, luciferase) [4]: 160 pM | EC50, inactivation of pseudovirus (Caco-2, luciferase) [5]: 2280 pM | Fold enhancement of AL5E over ACE2 (EC50, pseudovirus inactivation) [5]: 508 fold | Fold enhancement of AL5E over ACE2 (IC50, pseudovirus inhibition) [5]: 70.8 fold | IC50, inhibition of pseudovirus infection (Caco-2, luciferase) [5]: 930 pM | EC50, inactivation of pseudovirus (Caco-2, luciferase) [6]: 1570 pM | Fold enhancement of AL5E over ACE2 (EC50, pseudovirus inactivation) [6]: 78.4 fold | Fold enhancement of AL5E over ACE2 (IC50, pseudovirus inhibition) [6]: 94.5 fold | IC50, inhibition of pseudovirus infection (Caco-2, luciferase) [6]: 170 pM | EC50, inactivation of pseudovirus (Caco-2, luciferase) [7]: 2750 pM | Fold enhancement of AL5E over ACE2 (EC50, pseudovirus inactivation) [7]: 42 fold | Fold enhancement of AL5E over ACE2 (IC50, pseudovirus inhibition) [7]: 427 fold | IC50, inhibition of pseudovirus infection (Caco-2, luciferase) [7]: 30 pM | EC50, inactivation of pseudovirus (Caco-2, luciferase) [8]: 1990 pM | Fold enhancement of AL5E over ACE2 (EC50, pseudovirus inactivation) [8]: 96.3 fold | Fold enhancement of AL5E over ACE2 (IC50, pseudovirus inhibition) [8]: 362 fold | IC50, inhibition of pseudovirus infection (Caco-2, luciferase) [8]: 280 pM | EC50, inactivation of pseudovirus (Caco-2, luciferase) [9]: 8620 pM | Fold enhancement of AL5E over ACE2 (EC50, pseudovirus inactivation) [9]: 47.2 fold | Fold enhancement of AL5E over ACE2 (IC50, pseudovirus inhibition) [9]: 95.4 fold | IC50, inhibition of pseudovirus infection (Caco-2, luciferase) [9]: 80 pM | EC50, inactivation of pseudovirus (Caco-2, luciferase) [10]: 8720 pM | Fold enhancement of AL5E over ACE2 (EC50, pseudovirus inactivation) [10]: 27.9 fold | Fold enhancement of AL5E over ACE2 (IC50, pseudovirus inhibition) [10]: 47.7 fold | IC50, inhibition of pseudovirus infection (Caco-2, luciferase) [10]: 130 pM | EC50, inactivation of pseudovirus (Caco-2, luciferase) [11]: 4690 pM | Fold enhancement of AL5E over ACE2 (EC50, pseudovirus inactivation) [11]: 45.2 fold | Fold enhancement of AL5E over ACE2 (IC50, pseudovirus inhibition) [11]: 74.5 fold | IC50, inhibition of pseudovirus infection (Caco-2, luciferase) [11]: 170 pM | EC50, inactivation of pseudovirus (Caco-2, luciferase) [12]: 3730 pM | Fold enhancement of AL5E over ACE2 (EC50, pseudovirus inactivation) [12]: 40 fold | Fold enhancement of AL5E over ACE2 (IC50, pseudovirus inhibition) [12]: 136 fold | IC50, inhibition of pseudovirus infection (Caco-2, luciferase) [12]: 160 pM | EC50, inactivation of pseudovirus (Caco-2, luciferase) [13]: 1940 pM | Fold enhancement of AL5E over ACE2 (EC50, pseudovirus inactivation) [13]: 39.2 fold | Fold enhancement of AL5E over ACE2 (IC50, pseudovirus inhibition) [13]: 176 fold | IC50, inhibition of pseudovirus infection (Caco-2, luciferase) [13]: 60 pM | EC50, inactivation of pseudovirus (Caco-2, luciferase) [14]: 1910 pM | Fold enhancement of AL5E over ACE2 (EC50, pseudovirus inactivation) [14]: 354 fold | Fold enhancement of AL5E over ACE2 (IC50, pseudovirus inhibition) [14]: 51 fold | IC50, inhibition of pseudovirus infection (Caco-2, luciferase) [14]: 520 pM | EC50, inactivation of pseudovirus (Caco-2, luciferase) [15]: 2270 pM | Fold enhancement of AL5E over ACE2 (EC50, pseudovirus inactivation) [15]: 148 fold | Fold enhancement of AL5E over ACE2 (IC50, pseudovirus inhibition) [15]: 382 fold | IC50, inhibition of pseudovirus infection (Caco-2, luciferase) [15]: 40 pM | EC50, inactivation of pseudovirus (Caco-2, luciferase) [16]: 1290 pM | Fold enhancement of AL5E over ACE2 (EC50, pseudovirus inactivation) [16]: 63.7 fold | Fold enhancement of AL5E over ACE2 (IC50, pseudovirus inhibition) [16]: 624 fold | IC50, inhibition of pseudovirus infection (Caco-2, luciferase) [16]: 30 pM | EC50, inactivation of pseudovirus (Caco-2, luciferase) [17]: 2700 pM | Fold enhancement of AL5E over ACE2 (EC50, pseudovirus inactivation) [17]: 32.8 fold | Fold enhancement of AL5E over ACE2 (IC50, pseudovirus inhibition) [17]: 68.5 fold | IC50, inhibition of pseudovirus infection (Caco-2, luciferase) [17]: 220 pM

AL6E protein (ACE2-linker-EK1 fusion protein with (GGGGS)6 linker)
IC50, inhibition of pseudovirus infection (Caco-2, luciferase) [1]: 240 pM | IC50, inhibition of pseudovirus infection (Caco-2, luciferase) [2]: 270 pM | IC50, inhibition of pseudovirus infection (Caco-2, luciferase) [3]: 210 pM | IC50, inhibition of pseudovirus infection (Caco-2, luciferase) [4]: 310 pM | IC50, inhibition of pseudovirus infection (Caco-2, luciferase) [5]: 1960 pM | IC50, inhibition of pseudovirus infection (Caco-2, luciferase) [6]: 250 pM | IC50, inhibition of pseudovirus infection (Caco-2, luciferase) [7]: 70 pM | IC50, inhibition of pseudovirus infection (Caco-2, luciferase) [8]: 1010 pM | IC50, inhibition of pseudovirus infection (Caco-2, luciferase) [9]: 90 pM | IC50, inhibition of pseudovirus infection (Caco-2, luciferase) [10]: 250 pM | IC50, inhibition of pseudovirus infection (Caco-2, luciferase) [11]: 230 pM | IC50, inhibition of pseudovirus infection (Caco-2, luciferase) [12]: 860 pM | IC50, inhibition of pseudovirus infection (Caco-2, luciferase) [13]: 170 pM | IC50, inhibition of pseudovirus infection (Caco-2, luciferase) [14]: 1400 pM | IC50, inhibition of pseudovirus infection (Caco-2, luciferase) [15]: 130 pM | IC50, inhibition of pseudovirus infection (Caco-2, luciferase) [16]: 110 pM | IC50, inhibition of pseudovirus infection (Caco-2, luciferase) [17]: 280 pM

AL7E protein (ACE2-linker-EK1 fusion protein with (GGGGS)7 linker)
IC50, inhibition of pseudovirus infection (Caco-2, luciferase) [1]: 280 pM | IC50, inhibition of pseudovirus infection (Caco-2, luciferase) [2]: 110 pM | IC50, inhibition of pseudovirus infection (Caco-2, luciferase) [3]: 120 pM | IC50, inhibition of pseudovirus infection (Caco-2, luciferase) [4]: 310 pM | IC50, inhibition of pseudovirus infection (Caco-2, luciferase) [5]: 560 pM | IC50, inhibition of pseudovirus infection (Caco-2, luciferase) [6]: 240 pM | IC50, inhibition of pseudovirus infection (Caco-2, luciferase) [7]: 270 pM | IC50, inhibition of pseudovirus infection (Caco-2, luciferase) [8]: 930 pM | IC50, inhibition of pseudovirus infection (Caco-2, luciferase) [9]: 210 pM | IC50, inhibition of pseudovirus infection (Caco-2, luciferase) [10]: 210 pM | IC50, inhibition of pseudovirus infection (Caco-2, luciferase) [11]: 940 pM | IC50, inhibition of pseudovirus infection (Caco-2, luciferase) [12]: 1140 pM | IC50, inhibition of pseudovirus infection (Caco-2, luciferase) [13]: 230 pM | IC50, inhibition of pseudovirus infection (Caco-2, luciferase) [14]: 1040 pM | IC50, inhibition of pseudovirus infection (Caco-2, luciferase) [15]: 310 pM | IC50, inhibition of pseudovirus infection (Caco-2, luciferase) [16]: 140 pM | IC50, inhibition of pseudovirus infection (Caco-2, luciferase) [17]: 250 pM
